According to patent US20170183660, “APTAMER TARGETING MAGE-A3 PEPTIDE AND USES THEREOF” (Academia Sinica, published 2017):

T1: NY-ESO-1 peptide 87-111 (UniProt P78358 P78358:87-111)
T1 chain: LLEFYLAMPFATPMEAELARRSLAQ

T2: NY-ESO-1 peptide 157-170 (UniProt P78358 P78358:157-170)
T2 chain: SLLMWITQCFLPVF

T3: MAGE-A3 peptide 111-125 (unmodified) (UniProt P43357)
T3 chain: RKVAELVHFLLLKYR


Assays:
NY-ESO-1 peptide 87-111 = target: T1, NY-ESO-1 peptide 87-111; assay: pulldown; specificity control peptide; conditions: protein: synthetic; tags: peptide (synthetic, inferred), streptavidin beads
NY-ESO-1 peptide 119-143 = NY-ESO-1 peptide 119-143 (UniProt P78358 P78358:119-143); assay: pulldown; specificity control peptide; conditions: protein: synthetic; tags: peptide (synthetic, inferred), streptavidin beads
NY-ESO-1 peptide 157-170 = target: T2, NY-ESO-1 peptide 157-170; assay: pulldown; specificity control peptide; conditions: protein: synthetic; tags: peptide (synthetic, inferred), streptavidin beads
[1] = target: T3, MAGE-A3 peptide 111-125 (unmodified); assay: ITC; 25 C, DPBS with 0.45% glucose, 5 mM MgCl2; dH -24 kcal/mol; conditions: protein: synthetic; tags: none; peptide (synthetic, inferred)
Procedure: (§1) Thermodynamic profile of the interaction between DNA and peptide was measured with a MicroCal iTC₂₀₀ (GE Healthcare Life Sciences) at 25° C. in washing buffer (0.45% glucose, 5 mM MgCl₂, in Dulbecco's Phosphate-Buffered Saline). The unmodified MAGE-A3₁₁₁₋₁₂₅ peptide (0.3 mM, 200 μl) was titrated with 18 successive injections of 2 μl aptamer (0.1 mM) at 150 s intervals. The data were analyzed using MicroCal Origin 7 and fit with a one-set-of sites binding model to obtain values of enthalpy change (AH) and association constant (Kₐ).

[2] = target: T3, MAGE-A3 peptide 111-125 (unmodified); assay: ITC; 25 C, DPBS with 0.45% glucose, 5 mM MgCl2; dH -41 kcal/mol; conditions: protein: synthetic; tags: none; peptide (synthetic, inferred)
Procedure: as §1

Row | Binder | binding result (NY-ESO-1 peptide 87-111) | binding result (NY-ESO-1 peptide 119-143) | binding result (NY-ESO-1 peptide 157-170) | Kd [1] | Kd [2]
1 | Ap52 (ssDNA) DNA: ATCCAGAGTGACGCAGCAAGCACTCAATATTCCCTGGACACGGTGGCTTAGT | no binding | no binding | no binding | 57 nM | 
2 | AGCACTCAATATTCCC (ssDNA) [Ap16] |  |  |  |  | 95 nM
